How the values were obtained:
[1] = molecular target: Fc receptors on the surface of the effector cells; assay: cell-based or functional assay
[2] = molecular target: human FcRn receptor expressed by Jurkat cells (Jurkat-FcRn) (human) (UniProt P55899); assay: flow cytometry competition on Jurkat-FcRn cells, displacement of Rituxan-A488 (25 µg/ml), pH 6
[3] = molecular target: HisTag hCD32aH receptor (PX therapeutics) (human) (UniProt P12318); assay: BLI (Octet), HisTag hCD32aH on anti-Penta-HIS biosensors, 1/1 model; SD 114.3
[4] = molecular target: HisTag hCD16aV receptor (R&D System) (human) (UniProt P08637); assay: BLI (Octet), HisTag hCD16aV on anti-Penta-HIS biosensors, 1/1 model; SD 103.9
[5] = molecular target: human CD16aH receptor on transfected Jurkat cells (Jurkat-CD16aH) (human) (UniProt P08637); assay: flow cytometry competition on Jurkat-CD16aH cells, displacement of mAb 3G8-PE (0.5 µg/ml)
CD32b = CD32b (UniProt P31994); assay: competition assay, protocol and competitor for CD32b not described
[6] = molecular target: HisTag hCD16aV receptor (R&D System) (human) (UniProt P08637); assay: BLI (Octet), HisTag hCD16aV on anti-Penta-HIS biosensors, 1/1 model; SD 4.0
[7] = molecular target: human CD64 receptor expressed by Jurkat cells (Jurkat-CD64) (human) (UniProt P12314); assay: flow cytometry competition on Jurkat-CD64 cells, displacement of Rituxan-A488 (25 µg/ml)
[8] = molecular target: human CD64 receptor expressed by Jurkat cells (Jurkat-CD64) (human) (UniProt P12314); assay: cell-based or functional assay
[9] = molecular target: biotinylated human FcRn receptor (hFcRn), immobilized on Streptavidin Biosensors (human) (UniProt P55899); assay: BLI (Octet), biotinylated hFcRn on streptavidin biosensors, pH 6, 1/1 model; SD 1.94
[10] = molecular target: human CD32aH receptor on transfected HEK cells (HEK-CD32) (human) (UniProt P12318); assay: flow cytometry competition on HEK-CD32 cells, displacement of Rituxan-A488 (30 µg/ml)
[11] = molecular target: human CD32aR receptor on transfected HEK cells (HEK-CD32) (human) (UniProt P12318); assay: as above
Sequence of human CD32aR receptor on transfected HEK cells (HEK-CD32) (human) (P12318 34-317 H167R limits assumed): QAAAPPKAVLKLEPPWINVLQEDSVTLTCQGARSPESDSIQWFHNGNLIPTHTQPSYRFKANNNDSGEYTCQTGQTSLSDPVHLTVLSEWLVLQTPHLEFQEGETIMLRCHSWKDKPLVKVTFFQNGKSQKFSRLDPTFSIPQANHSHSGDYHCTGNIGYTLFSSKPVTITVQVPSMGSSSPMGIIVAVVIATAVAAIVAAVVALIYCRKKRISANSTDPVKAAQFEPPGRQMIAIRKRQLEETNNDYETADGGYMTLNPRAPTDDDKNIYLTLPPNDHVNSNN

Sequence of human CD64 receptor expressed by Jurkat cells (Jurkat-CD64) (human) (P12314 16-374): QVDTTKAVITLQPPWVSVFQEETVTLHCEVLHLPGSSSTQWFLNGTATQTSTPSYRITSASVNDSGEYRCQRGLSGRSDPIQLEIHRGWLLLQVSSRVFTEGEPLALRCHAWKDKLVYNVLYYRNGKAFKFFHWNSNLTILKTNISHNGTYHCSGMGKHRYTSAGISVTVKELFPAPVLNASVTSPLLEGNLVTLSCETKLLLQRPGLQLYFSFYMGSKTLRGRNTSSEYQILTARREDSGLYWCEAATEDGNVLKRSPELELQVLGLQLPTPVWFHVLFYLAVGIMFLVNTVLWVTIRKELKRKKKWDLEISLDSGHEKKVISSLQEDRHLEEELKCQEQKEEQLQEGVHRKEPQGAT
Sequence of HisTag hCD16aV receptor (R&D System) (human) (P08637 17-208 F176V limits assumed): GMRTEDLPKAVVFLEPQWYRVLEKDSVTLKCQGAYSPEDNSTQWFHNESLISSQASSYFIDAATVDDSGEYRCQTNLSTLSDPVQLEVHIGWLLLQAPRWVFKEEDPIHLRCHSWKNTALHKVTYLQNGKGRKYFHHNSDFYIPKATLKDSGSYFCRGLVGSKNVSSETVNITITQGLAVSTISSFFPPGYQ
Sequence of HisTag hCD32aH receptor (PX therapeutics) (human) (P12318 34-217 limits assumed): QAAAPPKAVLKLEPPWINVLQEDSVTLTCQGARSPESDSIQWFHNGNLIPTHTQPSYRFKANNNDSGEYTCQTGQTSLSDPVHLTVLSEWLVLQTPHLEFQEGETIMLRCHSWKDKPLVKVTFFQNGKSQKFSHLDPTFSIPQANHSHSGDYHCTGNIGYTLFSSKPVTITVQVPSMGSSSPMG
Sequence of human CD32aH receptor on transfected HEK cells (HEK-CD32) (human) (P12318 34-317): as the sequence (P12318 34-317 H167R limits assumed) above, with R134H counted along it
Sequence of human CD16aH receptor on transfected Jurkat cells (Jurkat-CD16aH) (human) (P08637 17-254): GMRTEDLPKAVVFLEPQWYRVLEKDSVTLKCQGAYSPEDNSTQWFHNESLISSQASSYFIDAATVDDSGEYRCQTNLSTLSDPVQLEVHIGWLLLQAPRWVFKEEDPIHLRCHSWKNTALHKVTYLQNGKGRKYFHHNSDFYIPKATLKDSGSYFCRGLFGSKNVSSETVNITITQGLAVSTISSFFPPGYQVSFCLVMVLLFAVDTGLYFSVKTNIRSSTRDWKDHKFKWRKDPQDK
Sequence of CD32b (P31994 43-310 limits assumed): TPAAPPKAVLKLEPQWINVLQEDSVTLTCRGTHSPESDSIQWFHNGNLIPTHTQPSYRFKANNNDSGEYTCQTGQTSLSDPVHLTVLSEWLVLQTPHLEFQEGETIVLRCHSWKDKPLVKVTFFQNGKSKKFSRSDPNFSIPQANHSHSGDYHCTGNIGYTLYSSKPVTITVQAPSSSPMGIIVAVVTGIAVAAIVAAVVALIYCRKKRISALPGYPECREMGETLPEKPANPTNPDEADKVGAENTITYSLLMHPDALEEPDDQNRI

Inhibition of the lysis of the red blood cells medited by the anti-D AD1 (IC 25%, nM) [1] [nM] | Inhibition of the lysis of the red blood cells medited by the anti-D AD1 (IC 50%, nM) [1] [nM] | IC50 [2] [nM] | Kd [3] [nM] | Kd [4] [nM] | IC50 [5] [nM] | IC50 (CD32b) [nM] | Kd [6] [nM] | IC50 [7] [nM] | Inhibition of the secretion of IL-2 of the Jurkat cells transfected with CD64 (IC 25%, nM) [8] [nM] | Inhibition of the secretion of IL-2 of the Jurkat cells transfected with CD64 (IC 50%, nM) [8] [nM] | Kd [9] [nM] | IC50 [10] [nM] | IC50 [11] [nM] | Substance
7.6 | 56 | – | – | – | – | – | – | – | – | – | – | – | – | A3A-184EY_CHO (Y296W/K334N/P352S/A378V/V397M/N434Y), Fc variant produced in CHO cells (from UniProt P0DOX5 223-449)
13.5 | 97 | – | – | – | – | – | – | – | – | – | – | – | – | A3A-184AY_CHO (K334N/P352S/A378V/V397M/N434Y), Fc variant produced in CHO cells (from UniProt P0DOX5 223-449)
59.6 | 351 | 1360 | 438 | 339 | 1680 | 761 | 654 | 880 | 1110 | < 1950 | 34.4 | 671 | 1310 | IVIg (intravenous immunoglobulin, polyvalent immunoglobulins from pools of human plasma donations) (antibody)
190 | 441 | – | – | – | – | – | – | – | – | – | – | – | – | Fc MST-HN fragment containing the mutations M252Y/S254T/T256E/H433K/N434F, produced in HEK-293 cells (from UniProt P01857 104-330)
